The results in this text go back to doi:10.1101/2021.05.25.445586.

Read-outs that look alike come from different tables or passages of the source.

The target of assay [1] is mouse WT-RELN (Reelin), full-length (mouse) (UniProt Q60841). Description: non-reducing SDS-PAGE with immunoblot.
The target is the same in assay [2]. Description: non-reducing SDS-PAGE with immunoblot. This is another data set of the same source.

With “mouse WT-RELN (Reelin), full-length, Q60841 27-3461”, the stoichiometry N in assay [1] and in assay [2] was 2 each time.

Usually stoichiometry N stands for the number of molecules, sites or subunits per partner or assembly.
